Tests used:
Assay in all cases: Kinase Profiling Assay
Type in all cases: biochemical
Details in all cases: 100 μM peptide
NEK7(h) = NEK7(h) (Homo sapiens, UniProt Q8TDX7)
How it was run: (§1)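 Each kinase in a 266-member human panel is assayed, in duplicate, for activity in the presence of MK2 inhibitory peptides to gauge specificity.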

ALK(h) = ALK(h) (Homo sapiens, UniProt Q9UM73)
How it was run: as §1

Pim-3(h) = Pim-3(h) (Homo sapiens, UniProt Q86V86)
How it was run: as §1

CDK7/cyclinH/MAT1(h) = CDK7/cyclinH/MAT1(h) (Homo sapiens, UniProt P50613)
Sequence of CDK7/cyclinH/MAT1(h) (P50613 whole entry): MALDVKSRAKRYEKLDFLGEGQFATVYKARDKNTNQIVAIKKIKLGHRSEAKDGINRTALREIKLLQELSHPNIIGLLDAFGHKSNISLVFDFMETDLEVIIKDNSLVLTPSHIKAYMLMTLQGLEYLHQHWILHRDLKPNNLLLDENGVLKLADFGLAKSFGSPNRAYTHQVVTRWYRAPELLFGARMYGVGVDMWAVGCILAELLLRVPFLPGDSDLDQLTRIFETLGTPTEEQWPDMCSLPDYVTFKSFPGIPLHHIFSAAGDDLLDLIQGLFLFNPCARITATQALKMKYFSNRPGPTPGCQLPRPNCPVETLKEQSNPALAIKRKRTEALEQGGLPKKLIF
Sequence of CDK7/cyclinH/MAT1(h) (P51946 whole entry partner): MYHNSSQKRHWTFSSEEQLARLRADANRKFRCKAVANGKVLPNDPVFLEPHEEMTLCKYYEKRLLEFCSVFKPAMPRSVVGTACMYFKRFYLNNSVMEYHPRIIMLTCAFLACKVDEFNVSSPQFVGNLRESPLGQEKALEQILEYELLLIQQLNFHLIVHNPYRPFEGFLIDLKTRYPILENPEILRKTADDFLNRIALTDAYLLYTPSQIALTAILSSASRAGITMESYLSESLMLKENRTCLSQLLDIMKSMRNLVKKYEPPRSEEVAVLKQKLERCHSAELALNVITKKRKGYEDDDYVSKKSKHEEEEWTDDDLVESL
Sequence of CDK7/cyclinH/MAT1(h) (P51948 whole entry partner): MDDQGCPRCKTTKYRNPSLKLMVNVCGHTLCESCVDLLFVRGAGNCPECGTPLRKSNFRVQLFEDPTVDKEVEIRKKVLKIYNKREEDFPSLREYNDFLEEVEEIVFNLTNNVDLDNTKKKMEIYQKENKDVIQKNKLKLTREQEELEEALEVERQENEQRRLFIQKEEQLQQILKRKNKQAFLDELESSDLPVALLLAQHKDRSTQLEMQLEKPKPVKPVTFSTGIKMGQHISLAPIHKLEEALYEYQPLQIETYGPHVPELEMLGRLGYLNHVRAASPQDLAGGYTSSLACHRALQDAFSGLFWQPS
How it was run: as §1

Yes(h) = Yes(h) (Homo sapiens, UniProt P07947)
Sequence of Yes(h) (P07947 whole entry): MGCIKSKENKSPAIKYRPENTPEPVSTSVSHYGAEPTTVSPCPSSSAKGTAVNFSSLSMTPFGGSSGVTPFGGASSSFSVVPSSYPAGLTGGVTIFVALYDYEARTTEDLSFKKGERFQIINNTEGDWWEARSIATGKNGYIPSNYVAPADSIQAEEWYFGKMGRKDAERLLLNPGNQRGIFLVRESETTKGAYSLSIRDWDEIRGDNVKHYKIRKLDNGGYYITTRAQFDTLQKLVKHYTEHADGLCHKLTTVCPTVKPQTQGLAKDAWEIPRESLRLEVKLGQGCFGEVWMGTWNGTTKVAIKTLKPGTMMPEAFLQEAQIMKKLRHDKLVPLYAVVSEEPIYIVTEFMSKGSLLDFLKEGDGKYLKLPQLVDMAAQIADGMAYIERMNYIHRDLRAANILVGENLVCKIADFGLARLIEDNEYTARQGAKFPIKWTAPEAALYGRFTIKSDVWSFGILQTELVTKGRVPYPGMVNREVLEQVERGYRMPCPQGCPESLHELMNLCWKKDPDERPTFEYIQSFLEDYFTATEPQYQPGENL
How it was run: as §1

EphA8(h) = molecular target: T1, EphA8(h) (Homo sapiens, UniProt P29322)
T1 sequence (P29322 28-1005): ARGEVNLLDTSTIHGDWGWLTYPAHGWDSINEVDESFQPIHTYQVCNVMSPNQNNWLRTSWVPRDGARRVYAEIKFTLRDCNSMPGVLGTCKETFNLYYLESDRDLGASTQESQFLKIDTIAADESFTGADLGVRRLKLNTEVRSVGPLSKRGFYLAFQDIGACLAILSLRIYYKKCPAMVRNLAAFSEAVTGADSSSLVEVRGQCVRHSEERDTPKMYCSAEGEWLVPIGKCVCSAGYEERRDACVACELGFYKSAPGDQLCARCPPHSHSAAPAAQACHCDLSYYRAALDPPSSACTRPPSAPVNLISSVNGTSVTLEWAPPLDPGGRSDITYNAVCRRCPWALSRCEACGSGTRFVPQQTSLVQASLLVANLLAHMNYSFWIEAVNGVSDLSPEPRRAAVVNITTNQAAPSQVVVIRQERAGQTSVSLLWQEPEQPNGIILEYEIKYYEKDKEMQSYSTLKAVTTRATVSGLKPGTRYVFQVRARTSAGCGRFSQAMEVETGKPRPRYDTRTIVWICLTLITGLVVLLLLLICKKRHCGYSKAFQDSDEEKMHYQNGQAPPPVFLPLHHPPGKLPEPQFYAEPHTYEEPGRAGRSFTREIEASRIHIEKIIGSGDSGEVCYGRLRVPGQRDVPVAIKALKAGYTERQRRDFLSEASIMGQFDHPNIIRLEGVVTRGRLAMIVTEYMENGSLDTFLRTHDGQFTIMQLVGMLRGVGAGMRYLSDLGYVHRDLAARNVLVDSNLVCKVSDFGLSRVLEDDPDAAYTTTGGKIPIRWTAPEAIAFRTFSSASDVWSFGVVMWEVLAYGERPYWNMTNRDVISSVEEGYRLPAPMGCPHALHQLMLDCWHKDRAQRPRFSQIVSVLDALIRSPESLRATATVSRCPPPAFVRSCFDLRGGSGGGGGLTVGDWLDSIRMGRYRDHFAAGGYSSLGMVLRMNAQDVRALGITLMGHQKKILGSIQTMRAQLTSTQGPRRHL
How it was run: as §1

CSK(h) = CSK(h) (Homo sapiens, UniProt P41240)
Sequence of CSK(h) (P41240 whole entry): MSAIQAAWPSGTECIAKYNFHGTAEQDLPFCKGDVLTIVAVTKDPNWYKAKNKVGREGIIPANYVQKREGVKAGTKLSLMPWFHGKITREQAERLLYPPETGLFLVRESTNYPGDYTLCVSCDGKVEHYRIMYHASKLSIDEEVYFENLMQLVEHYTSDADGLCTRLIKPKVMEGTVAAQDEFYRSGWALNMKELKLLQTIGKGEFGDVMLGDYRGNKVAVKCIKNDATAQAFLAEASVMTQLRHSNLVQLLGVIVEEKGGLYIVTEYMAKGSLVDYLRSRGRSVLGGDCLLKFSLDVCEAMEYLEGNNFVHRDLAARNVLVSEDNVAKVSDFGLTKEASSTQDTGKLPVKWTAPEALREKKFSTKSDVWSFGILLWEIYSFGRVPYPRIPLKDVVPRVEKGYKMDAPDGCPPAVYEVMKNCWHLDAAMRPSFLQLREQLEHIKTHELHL
How it was run: as §1

EphA1(h) = molecular target: T2, EphA1(h) (Homo sapiens, UniProt P21709)
T2 sequence (P21709 26-976): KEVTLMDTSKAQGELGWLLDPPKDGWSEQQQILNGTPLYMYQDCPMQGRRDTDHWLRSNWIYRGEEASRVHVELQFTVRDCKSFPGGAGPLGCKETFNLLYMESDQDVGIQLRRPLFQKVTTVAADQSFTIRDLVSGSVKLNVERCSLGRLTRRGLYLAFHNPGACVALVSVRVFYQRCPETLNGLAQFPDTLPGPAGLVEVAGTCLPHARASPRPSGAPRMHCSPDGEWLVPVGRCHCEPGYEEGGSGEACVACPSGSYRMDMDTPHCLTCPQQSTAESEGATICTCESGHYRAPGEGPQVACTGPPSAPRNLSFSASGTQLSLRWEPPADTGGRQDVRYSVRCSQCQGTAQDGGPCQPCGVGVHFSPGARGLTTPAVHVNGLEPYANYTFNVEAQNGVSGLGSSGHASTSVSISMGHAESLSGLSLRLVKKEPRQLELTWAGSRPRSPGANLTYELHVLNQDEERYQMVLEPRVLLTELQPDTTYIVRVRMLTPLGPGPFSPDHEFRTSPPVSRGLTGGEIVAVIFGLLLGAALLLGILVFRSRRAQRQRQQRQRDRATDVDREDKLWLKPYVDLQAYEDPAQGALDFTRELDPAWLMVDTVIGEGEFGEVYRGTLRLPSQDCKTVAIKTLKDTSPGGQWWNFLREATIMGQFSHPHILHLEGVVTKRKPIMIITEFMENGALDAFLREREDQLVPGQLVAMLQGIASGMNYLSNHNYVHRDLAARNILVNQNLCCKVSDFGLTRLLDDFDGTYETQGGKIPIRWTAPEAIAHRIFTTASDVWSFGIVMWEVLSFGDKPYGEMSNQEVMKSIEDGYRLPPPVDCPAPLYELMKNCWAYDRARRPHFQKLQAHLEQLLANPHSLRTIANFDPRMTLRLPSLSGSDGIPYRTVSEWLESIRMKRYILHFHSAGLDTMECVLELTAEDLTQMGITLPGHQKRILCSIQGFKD
How it was run: as §1

Lck(h) activated = Lck(h) activated (Homo sapiens, UniProt P06239)
Sequence of Lck(h) activated (P06239 whole entry): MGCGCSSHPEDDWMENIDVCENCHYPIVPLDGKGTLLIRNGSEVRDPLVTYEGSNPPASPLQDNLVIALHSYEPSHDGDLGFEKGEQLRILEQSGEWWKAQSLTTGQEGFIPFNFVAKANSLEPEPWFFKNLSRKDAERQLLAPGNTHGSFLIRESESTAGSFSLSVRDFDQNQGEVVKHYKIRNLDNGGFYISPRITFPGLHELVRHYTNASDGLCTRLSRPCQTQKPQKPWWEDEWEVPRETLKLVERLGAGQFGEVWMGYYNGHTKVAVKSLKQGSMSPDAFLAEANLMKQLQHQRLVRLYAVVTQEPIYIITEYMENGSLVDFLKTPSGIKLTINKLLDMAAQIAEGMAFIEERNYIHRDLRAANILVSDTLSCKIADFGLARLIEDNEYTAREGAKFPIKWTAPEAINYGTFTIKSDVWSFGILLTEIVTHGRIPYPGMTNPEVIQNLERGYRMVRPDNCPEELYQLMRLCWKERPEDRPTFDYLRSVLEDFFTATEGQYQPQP
How it was run: as §1

CLK3(h) = CLK3(h) (Homo sapiens, UniProt P49761)
Sequence of CLK3(h) (P49761 whole entry): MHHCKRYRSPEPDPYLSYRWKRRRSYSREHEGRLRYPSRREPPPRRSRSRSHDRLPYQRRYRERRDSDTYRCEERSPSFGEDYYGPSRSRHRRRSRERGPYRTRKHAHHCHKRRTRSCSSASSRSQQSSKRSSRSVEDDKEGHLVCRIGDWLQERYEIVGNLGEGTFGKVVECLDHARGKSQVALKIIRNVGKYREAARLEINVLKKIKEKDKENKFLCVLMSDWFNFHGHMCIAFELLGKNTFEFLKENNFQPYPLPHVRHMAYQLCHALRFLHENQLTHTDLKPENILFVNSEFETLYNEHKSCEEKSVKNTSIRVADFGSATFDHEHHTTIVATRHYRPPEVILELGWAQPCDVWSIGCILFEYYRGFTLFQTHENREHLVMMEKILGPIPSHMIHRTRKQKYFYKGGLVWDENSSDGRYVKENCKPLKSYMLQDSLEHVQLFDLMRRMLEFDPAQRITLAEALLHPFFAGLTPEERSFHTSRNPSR
How it was run: as §1

EphA7(h) = EphA7(h) (Homo sapiens, UniProt Q15375)
Sequence of EphA7(h) (Q15375 28-998): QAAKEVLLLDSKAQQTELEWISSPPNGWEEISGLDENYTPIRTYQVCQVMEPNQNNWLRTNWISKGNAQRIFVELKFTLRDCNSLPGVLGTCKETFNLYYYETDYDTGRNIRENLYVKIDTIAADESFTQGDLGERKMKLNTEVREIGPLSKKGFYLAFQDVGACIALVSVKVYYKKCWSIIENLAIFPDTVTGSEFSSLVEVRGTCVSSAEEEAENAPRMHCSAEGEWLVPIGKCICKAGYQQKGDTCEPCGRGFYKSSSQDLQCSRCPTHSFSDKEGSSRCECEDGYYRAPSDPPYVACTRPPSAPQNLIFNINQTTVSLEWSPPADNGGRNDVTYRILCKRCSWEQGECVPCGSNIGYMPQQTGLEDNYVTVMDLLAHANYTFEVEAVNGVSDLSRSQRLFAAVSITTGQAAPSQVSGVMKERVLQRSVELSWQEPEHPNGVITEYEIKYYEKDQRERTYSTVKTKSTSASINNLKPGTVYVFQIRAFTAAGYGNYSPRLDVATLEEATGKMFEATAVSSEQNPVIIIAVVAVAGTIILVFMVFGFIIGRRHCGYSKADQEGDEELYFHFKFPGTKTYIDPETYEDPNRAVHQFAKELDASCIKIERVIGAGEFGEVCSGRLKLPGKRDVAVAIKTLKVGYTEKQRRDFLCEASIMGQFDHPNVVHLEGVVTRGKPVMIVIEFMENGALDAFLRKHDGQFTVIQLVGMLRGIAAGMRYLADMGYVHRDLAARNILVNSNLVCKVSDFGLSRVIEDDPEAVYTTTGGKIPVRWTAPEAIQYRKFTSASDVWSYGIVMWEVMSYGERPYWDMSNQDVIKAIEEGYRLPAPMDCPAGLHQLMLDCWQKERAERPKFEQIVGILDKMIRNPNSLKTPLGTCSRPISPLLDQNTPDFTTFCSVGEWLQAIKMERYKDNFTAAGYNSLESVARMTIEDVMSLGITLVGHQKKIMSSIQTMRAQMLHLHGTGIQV
How it was run: as §1

Sequence of NEK7(h) (Q8TDX7 whole entry): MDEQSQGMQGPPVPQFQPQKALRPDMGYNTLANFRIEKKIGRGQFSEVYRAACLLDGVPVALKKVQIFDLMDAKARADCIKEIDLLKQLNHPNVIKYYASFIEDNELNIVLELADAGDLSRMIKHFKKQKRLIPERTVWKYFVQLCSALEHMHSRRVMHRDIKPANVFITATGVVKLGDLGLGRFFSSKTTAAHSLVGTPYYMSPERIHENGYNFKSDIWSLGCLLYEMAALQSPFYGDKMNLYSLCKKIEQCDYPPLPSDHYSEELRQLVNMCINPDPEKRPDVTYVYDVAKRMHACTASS

Row | Sequence | NEK7(h) % activity (NEK7(h)) [%] | ALK(h) % activity (ALK(h)) [%] | Pim-3(h) % activity (Pim-3(h)) [%] | CDK7/cyclinH/MAT1(h) % activity (CDK7/cyclinH/MAT1(h)) [%] | Yes(h) % activity (Yes(h)) [%] | EphA8(h) % activity (EphA8(h)) [%] | CSK(h) % activity (CSK(h)) [%] | EphA1(h) % activity (EphA1(h)) [%] | Lck(h) activated % activity (Lck(h) activated) [%] | CLK3(h) % activity (CLK3(h)) [%] | EphA7(h) % activity (EphA7(h)) [%]
1 | FAKLAARLYRKALARQLGVAA [MMI-0300] | 84 | 19 | 80 | 65 | 67 | 93 | 49 | 73 | 243 | 61 | 159
2 | HRRIKAWLKKIKALARQLGVAA (Mammalian) [MMI-0500] | 89 | 12 | 37 | 15 |  | 337 | 2 | 40 | 76 | 76 | 189
3 | KAFAKLAARLYRKALARQLGVAA [MMI-0400] | 87 | 16 | 80 | 47 | 14 | 146 | 16 | 61 | 216 | 84 | 222
4 | YARAAARQARAKALNRQLGVA (Mammalian) [MMI-0200] | 96 | 95 | 94 | 67 | 93 | 133 | 33 |  | 90 | 76 | 220

From patent US10562947B2, “Compositions and methods for preventing or treating diseases, conditions or processes characterized by aberrant fibroblast proliferation and extracellular matrix deposition” (MOERAE MATRIX, INC., priority 2011, dated 2020)
